# From patent US20240317852A1 (Molecular Partners, published 2024)
# Columns and labels:
# [1] = target: T1, biotinylated human CD33 full-length extracellular domain (residues 18-259) with C-terminal Fc tag and Avi tag (human, UniProt P20138 18-259, biotinylated with BirA-GST (Avi tag)); assay: SPR (ProteOn XPR36), biotinylated full-length CD33 ECD on NLC chip, DARPin at 50 nM, single trace
# T1 construct: Bought from Evitria; also called bio.hCD33; bio.hCD33 full-length target; not shown: C-terminal Fc tag and Avi tag
# T1 sequence (P20138 18-259 R69G limits assumed): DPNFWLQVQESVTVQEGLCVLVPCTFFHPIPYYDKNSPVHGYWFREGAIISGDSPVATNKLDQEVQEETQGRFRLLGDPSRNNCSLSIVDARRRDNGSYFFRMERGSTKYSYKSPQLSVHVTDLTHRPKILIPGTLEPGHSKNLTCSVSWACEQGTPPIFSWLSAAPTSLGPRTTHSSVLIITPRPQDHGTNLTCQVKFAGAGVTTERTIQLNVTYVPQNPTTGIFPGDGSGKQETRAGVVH
# Description: Briefly, SPR measurements were performed using a ProteOn XPR36 instrument (BioRad). The running buffer was PBS pH 7.4 containing 0.005% Tween 20® (PBST). The bio.hCD33 full-length target (SEQ ID NO: 60) was immobilized on NLC chips (BioRad) to a level of 540 RU and the spliced variant (SEQ ID NO: 61) to a level of 560RU. The interaction of the 96 well purified CD33-specific binding proteins in TCE format to the full-length and the spliced variant of CD33 ECD were measured by injecting the binding protein at 50 nM with an association of 120s and dissociation of 1200s using a constant flow of […]. The target was regenerated between the individual measurements using 2M MgCl₂. The signals were double referenced against the running buffer (PBST) treated control lane.
# Dissociation constants (KD) were calculated from the estimated on- and off-rates using standard procedures known to the person skilled in the art. […] The values in Table 2a are averages of multiple replicates.
# [2] = target: T2, human CD33 expressed on Molm-13 tumor cells (human, UniProt P20138 18-364); assay: flow cytometry on CD33-expressing Molm-13 N1 cells, anti-DARPin antibody detection
# T2 construct: whole, on cells; also called CD33 expressed on the surface of cells; CD33-expressing tumor cells (Molm-13 N1)
# T2 sequence (P20138 18-364): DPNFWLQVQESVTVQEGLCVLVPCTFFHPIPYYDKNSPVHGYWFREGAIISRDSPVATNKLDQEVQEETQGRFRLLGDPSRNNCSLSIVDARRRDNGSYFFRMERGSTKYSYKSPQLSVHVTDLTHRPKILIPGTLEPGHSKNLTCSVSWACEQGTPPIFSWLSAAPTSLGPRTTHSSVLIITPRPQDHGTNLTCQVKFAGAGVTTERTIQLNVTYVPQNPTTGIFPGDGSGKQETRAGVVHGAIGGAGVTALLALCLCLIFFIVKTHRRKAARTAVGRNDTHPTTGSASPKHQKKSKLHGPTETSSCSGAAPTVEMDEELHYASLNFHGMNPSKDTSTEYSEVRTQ
# Description: Binding of binding proteins of the invention to CD33 expressed on the surface of cells was analyzed by fluorescence activated cell sorting (FACS) flow cytometry. For this purpose. CD33-expressing tumor cells (Molm-13 N1) were seeded at 100,000 cells per well in a 96 well plate. DARPin® protein #2, DARPin protein #29, and DARPin® protein #30, in monospecific format, were titrated down In 1:5 dilution ratio starting at 2000 nM. Tumor cells were resuspended with diluted DARPin proteins and incubated for 60 minutes at 4° C. The assay was performed in PBS Including 2% fetal bovine serum without human serum albumin (HSA). After washing twice with Phosphate Buffer saline (PBS), DARPin® protein specific tumor call binding was detected by adding unlabeled primary […] (anti-rabbit 1-1-1 antibody, CePower) at 2 μg/ml. An incubation step of at least 30 minutes at 4° C. followed. Afterwards, cells were washed with PBS and a secondary goat anti-rabbit antibody labelled with Alexa Fluor 488 antibody (ThermoFisher) at 2 ug/ml was added. The same incubation conditions applied. Finally, the cells were washed twice and resuspended in Cytofix fixation buffer (BD Biosciences) for 15 min at room temperature (RT).
# [3] = target: T1, biotinylated human CD33 full-length …; assay: SPR (ProteOn), bio.hCD33 full length on NLC chip, DARPin at 100 nM, 1:1 Langmuir fit
# Description: Moreover, the binding affinities of two additional purified ankyrin repeat proteins on recombinant human CD33 target were measured and analyzed with a similar procedure as described above for DARPin proteins #1, #3, #6, #7-#9 and #14-#16. Briefly, bio.hCD33 was coaled on NLC chip (BioRad) to a level of 1180 RU. DARPin® protein #29 and DARPin® protein #30 were applied as analyte at a single concentration of 100 nM with a 120 s association and 1200 s dissociation phase at a constant flow of 100 ul/min. The target was regenerated with 4M MgCl2. The signals were double referenced against the running buffer (PBST-PBS pH 7.4 containing 0.005% Tween 200) treated control lane of L1 and A6. The 1:1 Langmuir model was used for the fitting.
# [4] = target: T1, biotinylated human CD33 full-length …; assay: HTRF
# [5] = target: T2, human CD33 expressed on Molm-13 tumor …; assay: flow cytometry on MOLM13 cells
binder,measurement,setting,value
"DARPin® protein #8 in TCE format (formatted with a CD3-specific ankyrin repeat domain) (designed binder, Crude extract HTRF construct also carried a C-terminal Flag tag; not shown: which one,) MRGSHHHHHHGSDLGWKLLSAATLGQDDEVRILLAAGADVNAKDEWGKTPLHWAASTGHLEIVEVLLKAGADVNAKDLWGHTPLHEAAAKGHLEIVEVLLKAGADGNAQDNIGDTPADLAAYQGHEDIAEVLQKAA",Kd,[1],2.3 nM
"DARPin® protein #15 in TCE format (formatted with a CD3-specific ankyrin repeat domain) (designed binder, Crude extract HTRF construct also carried a C-terminal Flag tag; not shown: which one,) MRGSHHHHHHGSDLGKKLLQAARAGQLDEVRELLKAGADVNAKDLIGWTPLHLAAHYGHLEIVEVLLKAGADVNAKDAQGWTPLHIAAWEGHLEIVEVLLKAGADVNAKDWTGETPLHLAAFEGHLEIVEVLLKAGADVNAQDKSGKTPADLAARAGHQDIAEVLQKAA",Kd,[1],17 nM
"DARPin® protein #5 in TCE format (formatted with a CD3-specific ankyrin repeat domain) (designed binder, Crude extract HTRF construct also carried a C-terminal Flag tag; not shown: which one,) MRGSHHHHHHGSDLSKKLLQAARAGQLDEVRELLKAGADVNAKDQIGQTPLHLAAQSGHLEIVEVLLKAGADVNAKDTEGWTPLHVAAWEGHLEIVEVLLKAGADVNAKDWTGETPLHLAAYQGHLEIVEVLLKAGADVNAQDKSGKTPADLAARAGHQDIAEVLQKAA",Kd,[1],12 nM
"DARPin® protein #1 in TCE format (formatted with a CD3-specific ankyrin repeat domain) (designed binder, not shown: which one,) MRGSHHHHHHGSDLGWKLLLAASRGQDDEVRILLAAGADVNAKDIDEGYTPLHIAAYYGHLEIVEVLLKAGADVNAKDRYGKTPLHLAAISGHEDIAEVLLKAGADVNAQDDKGDTPADLAADYGHEDIAEVLQKAA",Kd,[1],4.8 nM
"DARPin® protein #9 in TCE format (formatted with a CD3-specific ankyrin repeat domain) (designed binder, Crude extract HTRF construct also carried a C-terminal Flag tag; not shown: which one,) MRGSHHHHHHGSDLGYKLLWAASAGQDDEVRILLAAGADVNAKDKDGATPLHFAAAKGHLEIVEVLLKAGADVNAKDNRGATPLHYVAAASGHLEIVEVLLKAGADVNAQDEWGNTPADLAAIYGHGDIAEVLQKAA",Kd,[1],0.76 nM
"DARPin® protein #29 in monospecific (single domain) format (designed binder, the same molecule is used here) MRGSHHHHHHGSDLGVKLLLAAERGQLDEVRILLKAGADVNAKDIAEGYTPLHIAAYQGHLEIVEVLLKAGADVNAKDRYGKTPLHLAAIGGHLEIVEVLLKAGADVNAQDNKGSTPADLAADYGHQDIAEVLQKAA",EC50,[2],0.32 nM
same,Kd,[3],0.62 nM
DARPin® protein #2 in monospecific (single domain) format (designed binder) MRGSHHHHHHGSDLGVKLLLAASRGQLDEVRILLKAGADVNAKDIDEGYTPLHIAAYYGHLEIVEVLLKAGADVNAKDRYGKTPLHLAAISGHLEIVEVLLKAGADVNAQDDKGDTPADLAADYGHQDIAEVLQKAA,EC50,[2],1.2 nM
"DARPin® protein #30 in monospecific (single domain) format (designed binder, the same molecule is used here) MRGSHHHHHHGSDLGKKLLLAAERGQLDEVRILLKAGADVNAKDRAEGYTPLHIAAYQGHLEIVEVLLKAGADVNAKDRYGKTPLHLAAISGHLEIVEVLLKAGADVNAQDNKGSTPADLAADYGHQDIAEVLQKAA",EC50,[2],1.9 nM
same,Kd,[3],0.88 nM
"DARPin® protein #3 in TCE format (formatted with a CD3-specific ankyrin repeat domain) (designed binder, Crude extract HTRF construct also carried a C-terminal Flag tag; not shown: which one,) MRGSHHHHHHGSDLGVKLLRAAFHGQDDEVRILLAAGADVNAKDTDGETPLHYAAQFGHLEIVEVLLKAGADVNAKDAYGATPLHWAAWHGHLEIVEVLLKAGADVNAQDVSGATPADLAAKVGHEDIAEVLQKAA",Kd,[1],7.4 nM
"DARPin® protein #7 in TCE format (formatted with a CD3-specific ankyrin repeat domain) (designed binder, Crude extract HTRF construct also carried a C-terminal Flag tag; not shown: which one,) MRGSHHHHHHGSDLGLKLLRAAYDGQDDEVRILLAAGADVNAKDWQGFTPLHYAAVLGHLEIVEVLLKAGADVNAKDQEGATPLHLAALHGHLEIVEVLLKAGADVNAQDESGWTPADLAAKWGHEDIAEVLQKAA",Kd,[1],0.47 nM
DARPin® protein #10 (engineered variant of DARPin® protein #9) (designed binder) DLGYKLLWAASAGQDDEVRELLKAGADVNAKDKDGATPLHFAAAKGHLEIVEVLLKAGADVNAKDNRGATPLHYAAASGHLEIVEVLLKAGADVNAQDEWGNTPADLAAIYGHGDIAEVLQKAA,binding result,[4],binds
same,binding result,[5],binds
DARPin® protein #13 (engineered variant of DARPin® protein #9) (designed binder) DLGYKLLWAASAGQDDEVRELLKAGADVNAKDKDGATPLHFAAAKGHLEIVEVLLKAGADVNAKDNRGATPLHYAAASGHLEIVEVLLKAGADVNAQDEWGNTPADLAAIYGHEDIAEVLQKAA,binding result,[4],binds
same,binding result,[5],binds
"DARPin® protein #14 in TCE format (formatted with a CD3-specific ankyrin repeat domain) (designed binder, Crude extract HTRF construct also carried a C-terminal Flag tag; not shown: which one,) MRGSHHHHHHGSDLGWKLLNAAIAGQDDEVRILLAAGADVNAKDTEYGWTPLHIAASDGHLEIVEVLLKAGADVNAKDYAGSTPLHAAAFVGHLEIVEVLLKAGADVNAQDHQGQTPADLAAQQGHVDIAEVLQKAA",Kd,[1],0.64 nM
DARPin® protein #11 (engineered variant of DARPin® protein #9) (designed binder) DLGYKLLWAASAGQDDEVRELLKAGADVNAKDKDGATPLHFAAAKGHLEIVEVLLKAGADVNAKDNRGATPLHYVAAASGHLEIVEVLLKAGADVNAQDEWGNTPADLAAIYGHEDIAEVLQKAA,binding result,[4],binds
same,binding result,[5],binds
DARPin® protein #12 (engineered variant of DARPin® protein #9) (designed binder) DLGVKLLWAASAGQDDEVRELLKAGADVNAKDKDGATPLHFAAAKGHLEIVEVLLKAGADVNAKDNRGATPLHYVAAASGHLEIVEVLLKAGADVNAQDEWGNTPADLAAIYGHGDIAEVLQKAA,binding result,[4],binds
same,binding result,[5],binds
